Measurements published in patent publication US20160280794A1 (published 2016).

Target: T1, CD20 (human, UniProt P11836 1-297)
T1 chain: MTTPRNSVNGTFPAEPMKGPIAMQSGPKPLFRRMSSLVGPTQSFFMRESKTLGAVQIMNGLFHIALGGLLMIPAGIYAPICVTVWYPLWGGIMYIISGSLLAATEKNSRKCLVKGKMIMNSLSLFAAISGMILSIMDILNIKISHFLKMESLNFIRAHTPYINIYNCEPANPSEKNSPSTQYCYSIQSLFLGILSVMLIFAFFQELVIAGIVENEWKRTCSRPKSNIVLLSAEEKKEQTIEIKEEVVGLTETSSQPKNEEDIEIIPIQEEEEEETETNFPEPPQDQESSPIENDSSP
Experiment: FACS binding; Ramos cells

B1: Rituximab (antibody)
chain 1: not shown
chain 2: QIVLSQSPAILSASPGEKVTMTCRASSSVSYIHWFQQKPGSSPKPWIYATSNLASGVPVRFSGSGSGTSYSLTISRVEAEDAATYYCQQWTSNPPTFGGGTKLEIKRTVAAPSVFIFPPSDEQLKSGTASVVCLLNNFYPREAKVQWKVDNALQSGNSQESVTEQDSKDSTYSLSSTLTLSKADYEKHKVYACEVTHQGLSSPVTKSFNRGEC
B1 gave an EC50 of 1.13 µg/mL.
